B1: 20E2Bβ-3-C7-IR (peptide)
peptide: DYKDQSGSGDFYDWLSRLIRGNGDGAAAGAP
notes: not shown: rest of the phage display fusion (remainder of E-Tag, phage coat protein)
B2: B6Hα-3-F1-IR (peptide)
peptide: DYKDCSMAAVAEAGDDDDPFYHKLSELCQGSAAAGAP
notes: as for B1
B3: B6Hα-1-B3-IR (peptide)
peptide: DYKDGCITAENGAGDPFYHKLSELGGCSAAAGAP
notes: as for B1
B4: 20E2A-3-A4-IGFR (peptide)
peptide: DYKDAGSVTSFYDAMEQLVATGTSAAAAGAP
notes: as for B1
B5: B6Hα-2-D8-IR (peptide)
peptide: DYKDSSETAKMVTGTRDDPFYHKLSELVQGSAAAGAP
notes: as for B1
B6: B6Hα-3-E6-IR (peptide)
peptide: DYKDCGAKMTGTPNDPFYHKLSELLQRGAAAGAP
notes: as for B1
B7: R20β-4-E8-IR (peptide)
peptide: DYKDVRGFQGGTVWPGYEWLRNAAAAAGAP
notes: as for B1
B8: 20E2A-3-A3-IGFR (peptide)
peptide: DYKDGHYFGSFYDAIDQLVAGMLPGAAAGAP
notes: as for B1
B9: B6Hα-3-F7-IR (peptide)
peptide: DYKDSRVAATKEKRPSDDPFYHKLSELLQGSAAAGAP
notes: as for B1
B10: 40F-4-D1-IGFR (peptide)
peptide: DYKDLSCLAYSRHGIWRPSTDLGLGRSVGEGSVSTRWRGYDWFEAAAGAP
notes: as for B1
B11: B6L-3-G5-IR (peptide)
peptide: DYKDAETSAQVGWQRLWSVWPGDHWSTLDPFYHKLSELLRESGAAAAGAP
notes: as for B1
B12: 20E2A-4-G11-IGFR (peptide)
peptide: DYKDMNVFVSFYDAIDQLVCQRIGCAAAGAP
notes: as for B1
B13: B6Hα-3-E5-IR (peptide)
peptide: DYKDRCGDEEGWQENRRDDPFYHKLSELFGGCAAAGAP
notes: as for B1

The target in the first assay is T1, Soluble IGF-1R (sIGF-1R), R&D Systems Cat. # 391-GR/CF (UniProt P08069 31-935, limits assumed).
T1 construct: extracellular domain
Nature of the assay: phage ELISA. On the technique in general: In an ELISA, binding on a coated surface is turned into a signal by an enzyme label.
Consider GIISQSCPESFYDWFAGQVSDPWWCW [H2CA-4-G9-IGFR], for which the IGF-1R/IR comparison came to 16 and the “Ratio over Background” value worked out at 9.5.

Regarding CCLLCRFQQNFYDWFVCQGISRLRPL [H2CA-2-B4-IGFR], the IGF-1R/IR comparison is 3.6 and the “Ratio over Background” value was determined as 4.1.

Turning to FYVQQWGHENFYDWFDRQVSQSGGAG [H2CA-4-F1-IGFR], the IGF-1R/IR comparison stood at 3.8 and the “Ratio over Background” value stood at 3.5.

For the molecule TLDGGSFEEQFYDWFVRQLSYRTNPD [H2CA-4-G11-IGFR], the IGF-1R/IR comparison amounted to 3.9 and the “Ratio over Background” value turned out to be 9.5.

Regarding RAGSSDFHEDFYEWFVRQVSLSLKGK [H2CA-2-B9-IGFR], the IGF-1R/IR comparison was determined as 4.2 and the “Ratio over Background” value was found to be 7.

Regarding SRAKVEAEMPDSGDPFYHKLSELLASG [B6Hα-1-A3-IR], the IGF-1R/IR comparison was determined as 3.3 and the “Ratio over Background” value stood at 2.6.

In the case of NYRRQVFNGNFYDWFDRQVFSLVTPG [H2CA-3-D8-IGFR], the IGF-1R/IR comparison worked out at 4 and the “Ratio over Background” value stood at 7.2.

As for RCGRELYHSTFYDWFDRQVAGRTCPS [H2CA-1-A7-IGFR], the IGF-1R/IR comparison came out at 3.7 and the “Ratio over Background” value is 2.2.

For the molecule QAVQPGFHEEFYDWFVRQVSTGVGGG [H2CA-4-H4-IGFR], the IGF-1R/IR comparison turned out to be 4.2 and the “Ratio over Background” value was found to be 4.1.

Regarding APDPSDFQEIFYDWFVRQVSRMPGGG [H2CA-1-A3-IGFR], the IGF-1R/IR comparison came to 5.1 and the “Ratio over Background” value stood at 3.8.

PPLASDLDVQFYGWFVQQVSPPGRGG [H2CA-2-B3-IGFR]: the IGF-1R/IR comparison was 3.6 and the “Ratio over Background” value was found to be 3.8.

LRRQAPVEENFYDWFVRQVSGDRVGG [H2CA-3-D7-IGFR]: the IGF-1R/IR comparison came to 3.7 and the “Ratio over Background” value was determined as 3.

On to QSPVGSSHEDFYDWFFRQVAQSGAHQ [H2CA-3-D6-IGFR], for which the IGF-1R/IR comparison stood at 4 and the “Ratio over Background” value was found to be 9.

As to SSIGGGFHENFYDWFSRQLSQSPPLK [H2CA-4-F7-IGFR], the IGF-1R/IR comparison is 4.1 and the “Ratio over Background” value was 3.2.

As to GFREGNFYEWFQAQVT [E4Dα-4-H2-IR], the IGF-1R/IR comparison was determined as 4.1 and the “Ratio over Background” value amounted to 33.9.

Regarding SSCDGAGHESFYEWFVRQVSGCRSV [H2CA-3-C8-IGFR], the IGF-1R/IR comparison is 4.8 and the “Ratio over Background” value is 5.6.

In the next assay the target is T2, soluble human insulin receptor-immunoglobulin heavy chain chimera (sIR-Fc; Bass et al., 1996) (human, UniProt P06213 28-956, limits assumed).
T2 construct: extracellular domain; also called soluble IR (Bass construct); not shown: immunoglobulin heavy chain constant domains
The assay is described as follows: phage ELISA.
Regarding GIISQSCPESFYDWFAGQVSDPWWCW [H2CA-4-G9-IGFR], the IR/IGF-1R comparison was determined as 0.1 and the “Ratio over Background” value came to 0.6.

As for CCLLCRFQQNFYDWFVCQGISRLRPL [H2CA-2-B4-IGFR], the IR/IGF-1R comparison amounted to 0.3 and the “Ratio over Background” value amounted to 1.1.

Regarding FYVQQWGHENFYDWFDRQVSQSGGAG [H2CA-4-F1-IGFR], the IR/IGF-1R comparison was determined as 0.3 and the “Ratio over Background” value came to 0.9.

On to TLDGGSFEEQFYDWFVRQLSYRTNPD [H2CA-4-G11-IGFR], for which the IR/IGF-1R comparison was 0.3 and the “Ratio over Background” value was 2.5.

As to RAGSSDFHEDFYEWFVRQVSLSLKGK [H2CA-2-B9-IGFR], the IR/IGF-1R comparison worked out at 0.2 and the “Ratio over Background” value was found to be 1.7.

For the molecule SRAKVEAEMPDSGDPFYHKLSELLASG [B6Hα-1-A3-IR], the IR/IGF-1R comparison is 0.3 and the “Ratio over Background” value is 0.8.

Regarding NYRRQVFNGNFYDWFDRQVFSLVTPG [H2CA-3-D8-IGFR], the IR/IGF-1R comparison was found to be 0.3 and the “Ratio over Background” value came out at 1.8.

Take RCGRELYHSTFYDWFDRQVAGRTCPS [H2CA-1-A7-IGFR]: the IR/IGF-1R comparison was determined as 0.3 and the “Ratio over Background” value amounted to 0.6.

In the case of QAVQPGFHEEFYDWFVRQVSTGVGGG [H2CA-4-H4-IGFR], the IR/IGF-1R comparison was found to be 0.2 and the “Ratio over Background” value turned out to be 1.

Turning to APDPSDFQEIFYDWFVRQVSRMPGGG [H2CA-1-A3-IGFR], the IR/IGF-1R comparison was 0.2 and the “Ratio over Background” value was 0.8.

In the case of PPLASDLDVQFYGWFVQQVSPPGRGG [H2CA-2-B3-IGFR], the IR/IGF-1R comparison is 0.3 and the “Ratio over Background” value stood at 1.

On to LRRQAPVEENFYDWFVRQVSGDRVGG [H2CA-3-D7-IGFR], for which the IR/IGF-1R comparison is 0.3 and the “Ratio over Background” value was 0.8.

As to QSPVGSSHEDFYDWFFRQVAQSGAHQ [H2CA-3-D6-IGFR], the IR/IGF-1R comparison was 0.3 and the “Ratio over Background” value came to 2.2.

On to SSIGGGFHENFYDWFSRQLSQSPPLK [H2CA-4-F7-IGFR], for which the IR/IGF-1R comparison worked out at 0.2 and the “Ratio over Background” value stood at 0.8.

As for GFREGNFYEWFQAQVT [E4Dα-4-H2-IR], the IR/IGF-1R comparison was 0.2 and the “Ratio over Background” value was 8.2.

As to SSCDGAGHESFYEWFVRQVSGCRSV [H2CA-3-C8-IGFR], the IR/IGF-1R comparison came to 0.2 and the “Ratio over Background” value was 1.2.

In another assay the target is T3, Soluble IGF-1R (R&D Systems, Cat. # 391-GR/CF) (UniProt P08069 31-935, limits assumed).
T3 construct: extracellular domain; also called sIGF-1R; IGFR
The assay is described as follows: phage ELISA: IGF-1R ratio over background divided by IR ratio over background.
For B1, the “Comparison IGF-1R/IR” value is 2 ratio.

Turning to B2, the “Comparison IGF-1R/IR” value was 1.8 ratio.

As to B3, the “Comparison IGF-1R/IR” value came to 2.9 ratio.

On to B4, for which the “Comparison IGF-1R/IR” value is 1.4 ratio.

Consider B5, for which the “Comparison IGF-1R/IR” value was determined as 3 ratio.

On to B6, for which the “Comparison IGF-1R/IR” value is 1.9 ratio.

In the case of B7, the “Comparison IGF-1R/IR” value worked out at 9.7 ratio.

B8: the “Comparison IGF-1R/IR” value amounted to 1.9 ratio.

With B9, the “Comparison IGF-1R/IR” value was determined as 3.1 ratio.

For the molecule B10, the “Comparison IGF-1R/IR” value stood at 13.1 ratio.

On to B11, for which the “Comparison IGF-1R/IR” value stood at 1.4 ratio.

Consider B12, for which the “Comparison IGF-1R/IR” value was 2.6 ratio.

In the case of B13, the “Comparison IGF-1R/IR” value came to 2.9 ratio.

A further assay deals with T4, Insulin receptor prepared according to Bass et al., 1996 (human, UniProt P06213 28-956, limits assumed).
T4 construct: extracellular domain; also called IR; soluble IR (Bass construct); not shown: immunoglobulin constant domains (Fc or lambda) of the Bass construct
The assay is described as follows: phage ELISA: IR ratio over background divided by IGF-1R ratio over background.
On to B1, for which the “Comparison IR/IGF-1R” value came to 0.5 ratio.

Turning to B2, the “Comparison IR/IGF-1R” value amounted to 0.5 ratio.

For the molecule B3, the “Comparison IR/IGF-1R” value amounted to 0.3 ratio.

For the molecule B4, the “Comparison IR/IGF-1R” value was determined as 0.7 ratio.

Consider B5, for which the “Comparison IR/IGF-1R” value was found to be 0.3 ratio.

Regarding B6, the “Comparison IR/IGF-1R” value was 0.5 ratio.

As for B7, the “Comparison IR/IGF-1R” value came to 0.1 ratio.

B8: the “Comparison IR/IGF-1R” value was found to be 0.5 ratio.

As for B9, the “Comparison IR/IGF-1R” value is 0.3 ratio.

Turning to B10, the “Comparison IR/IGF-1R” value worked out at 0.1 ratio.

As for B11, the “Comparison IR/IGF-1R” value worked out at 0.7 ratio.

Consider B12, for which the “Comparison IR/IGF-1R” value was 0.4 ratio.

For the molecule B13, the “Comparison IR/IGF-1R” value was 0.3 ratio.

The target of another assay is T3, Soluble IGF-1R (R&D Systems, Cat. # …).
Test: not given
For B1, the “Ratio over Background, IGF-1R” value came to 3.1 ratio over background.

Consider B2, for which the “Ratio over Background, IGF-1R” value came out at 2.4 ratio over background.

Regarding B3, the “Ratio over Background, IGF-1R” value came out at 3.2 ratio over background.

For the molecule B4, the “Ratio over Background, IGF-1R” value is 2.5 ratio over background.

Take B5: the “Ratio over Background, IGF-1R” value was 3 ratio over background.

For B6, the “Ratio over Background, IGF-1R” value is 2.3 ratio over background.

As for B7, the “Ratio over Background, IGF-1R” value stood at 34.9 ratio over background.

For B8, the “Ratio over Background, IGF-1R” value amounted to 3 ratio over background.

Consider B9, for which the “Ratio over Background, IGF-1R” value was found to be 3.1 ratio over background.

B10: the “Ratio over Background, IGF-1R” value is 4.6 ratio over background.

As to B11, the “Ratio over Background, IGF-1R” value was determined as 2 ratio over background.

Turning to B12, the “Ratio over Background, IGF-1R” value stood at 3.3 ratio over background.

In the case of B13, the “Ratio over Background, IGF-1R” value came to 2.9 ratio over background.

The next assay has as its target T4, Insulin receptor prepared according to ….
Test: not given
Take B1: the “Ratio over Background, IR” value is 1.5 ratio over background.

For B2, the “Ratio over Background, IR” value turned out to be 1.3 ratio over background.

As for B3, the “Ratio over Background, IR” value stood at 1.1 ratio over background.

Regarding B4, the “Ratio over Background, IR” value stood at 1.8 ratio over background.

On to B5, for which the “Ratio over Background, IR” value is 1 ratio over background.

For B6, the “Ratio over Background, IR” value amounted to 1.2 ratio over background.

Consider B7, for which the “Ratio over Background, IR” value is 3.6 ratio over background.

In the case of B8, the “Ratio over Background, IR” value is 1.5 ratio over background.

For B9, the “Ratio over Background, IR” value came to 1 ratio over background.

As for B10, the “Ratio over Background, IR” value was 0.3 ratio over background.

Regarding B11, the “Ratio over Background, IR” value came out at 1.4 ratio over background.

With B12, the “Ratio over Background, IR” value came out at 1.3 ratio over background.

In the case of B13, the “Ratio over Background, IR” value amounted to 1 ratio over background.

The record behind these values is patent publication US20070265189A1 (published 2007).
